For four molecules, pKd results are on record in PMC9482650, “Quantitative fragmentomics allow affinity mapping of interactomes” (Nature Communications, 2022).

Among the targets are DLG4_2, P78352; FRMPD2_2, Q68DX3; FRMPD3, Q5JV73; FRMPD4, Q14CM0; GRIP2_6, Q9C0E4; IL16_1, Q14005; Inadl_2, Q8NI35; Inadl_4, Q8NI35; LDB3, O75112; MAGI2_5, Q86UL8; MAGI3_2, Q5TCQ9; MAST1, Q9Y2H9; NHERF4_1, Q86UT5-2; HTRA2, O43464.
Assay in all cases: holdup assay
Parameters in all cases: key: below the threshold = too weak to quantify, mostly under pKd 3.1 to 4

The target of the next experiment is T1, CARD11, Q9BXL7.
T1 sequence (Q9BXL7 662-765, limits assumed, looked up): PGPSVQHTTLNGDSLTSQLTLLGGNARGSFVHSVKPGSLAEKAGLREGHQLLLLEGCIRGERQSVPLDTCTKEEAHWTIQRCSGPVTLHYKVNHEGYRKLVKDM

Another experiment has as its target T2, DFNB31_1, Q9P202.
T2 sequence (Q9P202 135-233, limits assumed, looked up): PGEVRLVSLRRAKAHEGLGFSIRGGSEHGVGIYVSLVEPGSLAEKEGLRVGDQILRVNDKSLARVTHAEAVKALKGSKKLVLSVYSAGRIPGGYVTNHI

In the next experiment the target is GOPC, Q9HD26. The conditions noted are these: plain residues with an end cap or a label only (N-terminal biotin on a linker: ado-ado).
The target in the next experiment is T3, GRIP1_2, Q9Y3R0.
T3 sequence (Q9Y3R0 145-248, limits assumed, looked up): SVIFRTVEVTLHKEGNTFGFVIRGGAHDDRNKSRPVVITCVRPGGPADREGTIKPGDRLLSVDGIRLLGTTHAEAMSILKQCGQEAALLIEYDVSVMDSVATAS

A further experiment deals with T4, GRIP1_7, Q9Y3R0.
T4 sequence (Q9Y3R0 999-1096, limits assumed, looked up): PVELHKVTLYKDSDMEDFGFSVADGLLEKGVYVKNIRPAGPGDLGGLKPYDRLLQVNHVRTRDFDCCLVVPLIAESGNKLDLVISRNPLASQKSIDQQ

The next experiment concerns the target T5, LRRC7, Q96NW7.
T5 sequence (Q96NW7 1440-1537, limits assumed, looked up): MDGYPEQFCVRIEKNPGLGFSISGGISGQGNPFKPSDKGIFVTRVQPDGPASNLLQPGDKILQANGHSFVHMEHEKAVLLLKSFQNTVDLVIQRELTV

The next experiment has as its target T6, MPDZ_10, O75970.
T6 sequence (O75970 1624-1722, limits assumed, looked up): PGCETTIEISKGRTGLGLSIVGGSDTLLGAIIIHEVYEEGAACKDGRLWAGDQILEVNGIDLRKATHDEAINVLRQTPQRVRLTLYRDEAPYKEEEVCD

The target in the next experiment is T7, MPDZ_5, O75970.
T7 sequence (O75970 695-796, limits assumed, looked up): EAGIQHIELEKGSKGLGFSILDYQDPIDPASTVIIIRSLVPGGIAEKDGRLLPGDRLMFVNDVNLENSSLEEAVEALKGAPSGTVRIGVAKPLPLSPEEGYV

The target of another experiment is T8, MPP6, Q9NZW5.
T8 sequence (Q9NZW5 125-219, limits assumed, looked up): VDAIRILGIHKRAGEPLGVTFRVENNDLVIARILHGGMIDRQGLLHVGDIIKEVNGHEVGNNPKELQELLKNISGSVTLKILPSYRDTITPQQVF

The next experiment concerns the target T9, MPP7, Q5T2T1.
T9 sequence (Q5T2T1 134-230, limits assumed, looked up): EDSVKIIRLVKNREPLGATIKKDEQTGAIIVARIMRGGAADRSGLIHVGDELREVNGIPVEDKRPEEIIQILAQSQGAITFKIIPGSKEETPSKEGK

In the next experiment the target is T10, RADIL, Q96JH8.
T10 sequence (Q96JH8 971-1071, limits assumed, looked up): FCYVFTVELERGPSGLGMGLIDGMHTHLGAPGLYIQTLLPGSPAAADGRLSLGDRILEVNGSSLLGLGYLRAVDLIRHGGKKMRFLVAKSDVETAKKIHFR

Another experiment concerns the target T11, RAPGEF6, Q8TEU7.
T11 sequence (Q8TEU7 525-625, limits assumed, looked up): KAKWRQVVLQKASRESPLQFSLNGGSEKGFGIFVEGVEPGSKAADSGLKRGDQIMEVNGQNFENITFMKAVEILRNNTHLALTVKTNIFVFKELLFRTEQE

Where [1] appears, read: plain residues with an end cap or a label only (N-terminal biotin on a linker: ado-ado).
Where [2] appears, read: modified: phospho on T at position -2 from the C-terminal residue.

MAGI2_5, Q86UL8, sequence (Q86UL8 915-1017): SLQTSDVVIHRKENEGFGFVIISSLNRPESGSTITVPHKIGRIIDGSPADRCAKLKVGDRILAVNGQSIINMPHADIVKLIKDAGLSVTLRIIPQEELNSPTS
LDB3, O75112, sequence (O75112 1-94): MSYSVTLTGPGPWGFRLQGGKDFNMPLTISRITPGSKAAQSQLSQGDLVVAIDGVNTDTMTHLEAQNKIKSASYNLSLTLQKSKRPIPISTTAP
Inadl_2, Q8NI35, sequence (Q8NI35 238-335): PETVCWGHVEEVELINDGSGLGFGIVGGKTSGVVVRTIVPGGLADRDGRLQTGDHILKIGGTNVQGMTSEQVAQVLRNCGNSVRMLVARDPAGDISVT
NHERF4_1, Q86UT5-2, sequence (Q86UT5 other isoform, or with tags, fused parts or gaps): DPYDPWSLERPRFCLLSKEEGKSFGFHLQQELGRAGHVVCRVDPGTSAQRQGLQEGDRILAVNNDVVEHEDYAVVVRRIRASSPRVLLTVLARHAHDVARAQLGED
MAST1, Q9Y2H9, sequence (Q9Y2H9 962-1065): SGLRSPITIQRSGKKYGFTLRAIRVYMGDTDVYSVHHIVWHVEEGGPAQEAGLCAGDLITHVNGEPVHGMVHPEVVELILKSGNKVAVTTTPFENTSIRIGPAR
IL16_1, Q14005, sequence (Q14005 210-306): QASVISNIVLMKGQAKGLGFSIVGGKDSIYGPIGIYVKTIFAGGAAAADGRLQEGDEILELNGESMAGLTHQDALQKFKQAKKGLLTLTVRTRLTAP
DLG4_2, P78352, sequence (P78352 155-259): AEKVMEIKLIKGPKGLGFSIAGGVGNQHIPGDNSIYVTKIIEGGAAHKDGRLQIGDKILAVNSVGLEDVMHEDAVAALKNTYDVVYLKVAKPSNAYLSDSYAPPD
FRMPD4, Q14CM0, sequence (Q14CM0 67-160): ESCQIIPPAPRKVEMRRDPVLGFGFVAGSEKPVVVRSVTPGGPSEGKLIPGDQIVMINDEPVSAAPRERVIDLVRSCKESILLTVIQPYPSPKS
Inadl_4, Q8NI35, sequence (Q8NI35 547-651): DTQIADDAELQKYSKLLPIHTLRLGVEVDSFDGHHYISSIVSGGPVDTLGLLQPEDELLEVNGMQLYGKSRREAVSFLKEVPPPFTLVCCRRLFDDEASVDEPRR
GRIP2_6, Q9C0E4, sequence (Q9C0E4 648-740): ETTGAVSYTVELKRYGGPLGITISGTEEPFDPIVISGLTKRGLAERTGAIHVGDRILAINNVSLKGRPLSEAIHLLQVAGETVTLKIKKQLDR
FRMPD2_2, Q68DX3, sequence (Q68DX3 944-1038): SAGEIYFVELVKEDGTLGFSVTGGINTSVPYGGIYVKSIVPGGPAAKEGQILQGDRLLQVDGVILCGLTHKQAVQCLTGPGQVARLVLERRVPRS
FRMPD3, Q5JV73, sequence (Q5JV73 12-100): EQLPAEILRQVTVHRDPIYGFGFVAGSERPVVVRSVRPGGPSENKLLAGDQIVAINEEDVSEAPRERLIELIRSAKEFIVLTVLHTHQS
MAGI3_2, Q5TCQ9, sequence (Q5TCQ9 398-503): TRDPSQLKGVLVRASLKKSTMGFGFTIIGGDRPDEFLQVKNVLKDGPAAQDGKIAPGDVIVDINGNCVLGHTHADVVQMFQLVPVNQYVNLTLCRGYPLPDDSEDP
HTRA2, O43464, sequence (O43464 355-458): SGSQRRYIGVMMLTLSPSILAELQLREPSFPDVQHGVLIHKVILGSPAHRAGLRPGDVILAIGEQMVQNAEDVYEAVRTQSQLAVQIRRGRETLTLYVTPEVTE

For the molecule VYPNAKVELV [PDLIM4_iso2, P50479;P50479-1], the pKd result in the experiment with CARD11, Q9BXL7 (setting [1]) is recorded as “below the threshold”; in the experiment with DFNB31_1, Q9P202 (setting [1]), “below the threshold”; with DLG4_2, P78352 (setting [1]), “below the threshold”; with FRMPD2_2, Q68DX3 (setting [1]), “below the threshold”; with FRMPD3, Q5JV73 (setting [1]), “below the threshold”; in the experiment with FRMPD4, Q14CM0 (setting [1]) it was “below the threshold”. Further, the pKd result in the experiment with GOPC, Q9HD26 is “below the threshold”; in the experiment with GRIP1_2, Q9Y3R0 (setting [1]) it was “below the threshold”; in the experiment with GRIP1_7, Q9Y3R0 (setting [1]), “below the threshold”; in the experiment with GRIP2_6, Q9C0E4 (setting [1]), “below the threshold”; with IL16_1, Q14005 (setting [1]), “below the threshold”; with Inadl_2, Q8NI35 (setting [1]), “below the threshold”. Further, the pKd entry in the experiment with Inadl_4, Q8NI35 (setting [1]) was “below the threshold”; with LDB3, O75112 (setting [1]), “below the threshold”; with LRRC7, Q96NW7 (setting [1]) it was “below the threshold”; in the experiment with MAGI2_5, Q86UL8 (setting [1]), “below the threshold”; with MAGI3_2, Q5TCQ9 (setting [1]) it was “below the threshold”; with MAST1, Q9Y2H9 (setting [1]), “below the threshold”. Moreover, the pKd entry in the experiment with MPDZ_10, O75970 (setting [1]) was “below the threshold”; with MPDZ_5, O75970 (setting [1]), “below the threshold”; in the experiment with MPP6, Q9NZW5 (setting [1]), “below the threshold”; in the experiment with MPP7, Q5T2T1 (setting [1]), “below the threshold”; with NHERF4_1, Q86UT5-2 (setting [1]) it was 3.98; in the experiment with RADIL, Q96JH8 (setting [1]), 5.24. Besides, in the experiment with RAPGEF6, Q8TEU7 (setting [1]), the pKd entry is reported as “below the threshold”.

With RLQRRRETQV [HPV18-E6_-2P, P06463], the pKd entry was “below the threshold” with CARD11, Q9BXL7 (setting [2]); “below the threshold” in the experiment with DFNB31_1, Q9P202 (setting [2]); 3.65 in the experiment with DLG4_2, P78352 (setting [2]); “below the threshold” in the experiment with FRMPD2_2, Q68DX3 (setting [2]); “below the threshold” with FRMPD3, Q5JV73 (setting [2]); “below the threshold” with FRMPD4, Q14CM0 (setting [2]). Moreover, the pKd entry with GRIP1_2, Q9Y3R0 (setting [2]) is recorded as “below the threshold”; with GRIP1_7, Q9Y3R0 (setting [2]), “below the threshold”; with GRIP2_6, Q9C0E4 (setting [2]) it was “below the threshold”; in the experiment with HTRA2, O43464 (setting [2]) it was “below the threshold”; with IL16_1, Q14005 (setting [2]) it was “below the threshold”; with Inadl_2, Q8NI35 (setting [2]), “below the threshold”. Besides, the pKd result with Inadl_4, Q8NI35 (setting [2]) is “below the threshold”; with LDB3, O75112 (setting [2]), “below the threshold”; with LRRC7, Q96NW7 (setting [2]), “below the threshold”; with MAGI2_5, Q86UL8 (setting [2]), “below the threshold”; with MAGI3_2, Q5TCQ9 (setting [2]) it was “below the threshold”; in the experiment with MAST1, Q9Y2H9 (setting [2]), “below the threshold”. Moreover, the pKd entry is “below the threshold” with MPDZ_10, O75970 (setting [2]); “below the threshold” in the experiment with MPDZ_5, O75970 (setting [2]); 3.57 with MPP6, Q9NZW5 (setting [2]); “below the threshold” with MPP7, Q5T2T1 (setting [2]); 3.6 with NHERF4_1, Q86UT5-2 (setting [2]); “below the threshold” with RADIL, Q96JH8 (setting [2]). In the experiment with RAPGEF6, Q8TEU7 (setting [2]), the pKd result is “below the threshold”.

Consider LPAHHNATRL [SLC34A1, Q06495;Q06495-1], for which the pKd result was “below the threshold” with CARD11, Q9BXL7 (setting [1]); “below the threshold” with DLG4_2, P78352 (setting [1]); “below the threshold” with FRMPD2_2, Q68DX3 (setting [1]); “below the threshold” in the experiment with FRMPD3, Q5JV73 (setting [1]); 4.31 with FRMPD4, Q14CM0 (setting [1]); 4.53 with GOPC, Q9HD26. Moreover, the pKd entry in the experiment with GRIP1_2, Q9Y3R0 (setting [1]) is given as “below the threshold”; with GRIP1_7, Q9Y3R0 (setting [1]), “below the threshold”; with GRIP2_6, Q9C0E4 (setting [1]), “below the threshold”; in the experiment with HTRA2, O43464 (setting [1]) it was “below the threshold”; in the experiment with IL16_1, Q14005 (setting [1]) it was “below the threshold”; with Inadl_2, Q8NI35 (setting [1]) it was “below the threshold”. In addition, the pKd result in the experiment with Inadl_4, Q8NI35 (setting [1]) was “below the threshold”; with LDB3, O75112 (setting [1]) it was “below the threshold”; in the experiment with LRRC7, Q96NW7 (setting [1]) it was “below the threshold”; with MAST1, Q9Y2H9 (setting [1]), 4.84; with MPDZ_10, O75970 (setting [1]), “below the threshold”; in the experiment with MPDZ_5, O75970 (setting [1]), “below the threshold”. Also, the pKd result with MPP6, Q9NZW5 (setting [1]) was “below the threshold”; in the experiment with MPP7, Q5T2T1 (setting [1]), “below the threshold”; in the experiment with NHERF4_1, Q86UT5-2 (setting [1]) it was 4.01; in the experiment with RADIL, Q96JH8 (setting [1]), “below the threshold”; with RAPGEF6, Q8TEU7 (setting [1]), “below the threshold”.

Consider KSGKQTMLVV [TRIM29, Q14134;Q14134-2], for which the pKd result with CARD11, Q9BXL7 (setting [1]) is “below the threshold”; with DFNB31_1, Q9P202 (setting [1]) it was “below the threshold”; with FRMPD2_2, Q68DX3 (setting [1]), “below the threshold”; with FRMPD3, Q5JV73 (setting [1]), “below the threshold”; with FRMPD4, Q14CM0 (setting [1]) it was “below the threshold”; with GOPC, Q9HD26, “below the threshold”. In addition, the pKd result is recorded as “below the threshold” with GRIP1_2, Q9Y3R0 (setting [1]); “below the threshold” in the experiment with GRIP1_7, Q9Y3R0 (setting [1]); “below the threshold” with IL16_1, Q14005 (setting [1]); “below the threshold” with Inadl_2, Q8NI35 (setting [1]); “below the threshold” with LDB3, O75112 (setting [1]); “below the threshold” in the experiment with LRRC7, Q96NW7 (setting [1]). In addition, the pKd result with MAGI2_5, Q86UL8 (setting [1]) was “below the threshold”; in the experiment with MAST1, Q9Y2H9 (setting [1]), “below the threshold”; in the experiment with MPDZ_5, O75970 (setting [1]), “below the threshold”; with MPP6, Q9NZW5 (setting [1]), “below the threshold”; in the experiment with MPP7, Q5T2T1 (setting [1]) it was “below the threshold”; in the experiment with RADIL, Q96JH8 (setting [1]), 4.46. Also, the negative-log Kd (pKd) entry with RAPGEF6, Q8TEU7 (setting [1]) is “below the threshold”.

By pKd is commonly meant −log10 of the Kd, conventionally taken in molar units.
